Tests used:
Experiment in all cases: ITC
N-BRDT(1) (Homo sapiens) = N-BRDT(1) (Homo sapiens) (UniProt Q58F21); details: EMSA: 20 mM Tris pH 7.5, 100 mM NaCl, 5 mM DTT, 0.5 mM EDTA, 4 C, ITC: 20 mM Tris pH 8.0, 150 mM NaCl, 1 mM EDTA, 1 mM TCEP, 20 C, NMR at 34 C
[1] = biological target: N-BRDT(1) 3KE K37E;K41E;K45E (Homo sapiens) (UniProt Q58F21); details: histone H4K5acK8ac (H4 A15C ligation); EMSA: 20 mM Tris pH 7.5, 100 mM NaCl, 5 mM DTT, 0.5 mM EDTA, 4 C; ITC: 20 mM Tris pH 8.0, 150 mM NaCl, 1 mM EDTA, 1 mM TCEP, 20 C; NMR at 34 C
[2] = biological target: N-BRDT(1) 3KS K37S;K41S;K45S (Homo sapiens) (UniProt Q58F21); details: histone H4K5acK8ac (H4 A15C ligation); EMSA: 20 mM Tris pH 7.5, 100 mM NaCl, 5 mM DTT, 0.5 mM EDTA, 4 C; ITC: 20 mM Tris pH 8.0, 150 mM NaCl, 1 mM EDTA, 1 mM TCEP, 20 C; NMR at 34 C
[3] = biological target: N-BRDT(1) K41S K41S (Homo sapiens) (UniProt Q58F21); details: histone H4K5acK8ac (H4 A15C ligation); EMSA: 20 mM Tris pH 7.5, 100 mM NaCl, 5 mM DTT, 0.5 mM EDTA, 4 C; ITC: 20 mM Tris pH 8.0, 150 mM NaCl, 1 mM EDTA, 1 mM TCEP, 20 C; NMR at 34 C

| Sequence | Kd (N-BRDT(1) (Homo sapiens); histone H4K5acK8ac (H4 A15C ligation)) | binding signal (fold reduced affinity vs WT) [1] | Kd [2] | Kd [3] | Kd (N-BRDT(1) (Homo sapiens); H4K5acK8ac tail ligated to H3 core, WT H2A, H2B, H4) |
| --- | --- | --- | --- | --- | --- |
| TCGGGGGCCGCCCTGGAGAATCCCGGTGCCGAGGCCGCTCAATTGGTCGTAGACAGCTCTAGCACCGCTTAAACGCACGTACGCGCTGTCCCCCGCGTTTTAACCGCCAAGGGGATTACTCCCTAGTCTCCAGGCACGTGTCAGATATATACATCCTGTGCATGTAC / CCGAGTACATGCACAGGATGTATATATCTGACACGTGCCTGGAGACTAGGGAGTAATCCCCTTGGCGGTTAAAACGCGGGGGACAGCGCGTACGTGCGTTTAAGCGGTGCTAGAGCTGTCTACGACCAATTGAGCGGCCTCGGCACCGGGATTCTCCAGGGCGGCCC [H4K5acK8ac nucleosome (167 bp Widom)] | 2 µM | 5 | 9 µM | 7 µM | – |
| TCGGGGGCCGCCCTGGAGAATCCCGGTGCCGAGGCCGCTCAATTGGTCGTAGACAGCTCTAGCACCGCTTAAACGCACGTACGCGCTGTCCCCCGCGTTTTAACCGCCAAGGGGATTACTCCCTAGTCTCCAGGCACGTGTCAGATATATACATCCTGTGCATGTAC / CCGAGTACATGCACAGGATGTATATATCTGACACGTGCCTGGAGACTAGGGAGTAATCCCCTTGGCGGTTAAAACGCGGGGGACAGCGCGTACGTGCGTTTAAGCGGTGCTAGAGCTGTCTACGACCAATTGAGCGGCCTCGGCACCGGGATTCTCCAGGGCGGCCC [chimeric H3-H4K5acK8ac nucleosome (167 bp Widom)] | – | – | – | – | 5 µM |
